In the array DNA melting data of Ke et al.:

Assay: melting temperature; melt of duplexes
Conditions: sodium 0.0675 M; strand 1 µM

Row | Substance | Tm [°C]
1 | CGACGTGCCCCATGTGCTG+CAGCACATTTTGCACGTCG ((((((((...((((((((+))))))))...)))))))) | 46.6
2 | CGACGTGCCCGATGTGCTG+CAGCACATAAAGCACGTCG ((((((((...((((((((+))))))))...)))))))) | 49.8
3 | CGACGTGCCCGATGTGCTG+CAGCACATAAGGCACGTCG (((((((((..((((((((+))))))))..))))))))) | 54.5
4 | CGACGTGCCCGATGTGCTG+CAGCACATAATGCACGTCG ((((((((...((((((((+))))))))...)))))))) | 48.1
5 | CGACGTGCCCGATGTGCTG+CAGCACATACCGCACGTCG ((((((((...((((((((+))))))))...)))))))) | 47.7
6 | CGACGTGCCCGATGTGCTG+CAGCACATACTGCACGTCG ((((((((...((((((((+))))))))...)))))))) | 48.7
7 | CGACGTGCCCGATGTGCTG+CAGCACATAGGGCACGTCG ((((((((((.((((((((+)))))))).)))))))))) | 61.5
8 | CGACGTGCCCGATGTGCTG+CAGCACATAGTGCACGTCG ((((((((.(.((((((((+)))))))).).)))))))) | 48
9 | CGACGTGCCCGATGTGCTG+CAGCACATATCGCACGTCG ((((((((...((((((((+))))))))...)))))))) | 47.2
10 | CGACGTGCCCGATGTGCTG+CAGCACATATGGCACGTCG (((((((((..((((((((+))))))))..))))))))) | 54
11 | CGACGTGCCCGATGTGCTG+CAGCACATCAAGCACGTCG ((((((((..(((((((((+)))))))))..)))))))) | 52.8
12 | CGACGTGCCCGATGTGCTG+CAGCACATCGGGCACGTCG (((((((((((((((((((+))))))))))))))))))) | 68.2
13 | CGACGTGCCCGATGTGCTG+CAGCACATCTAGCACGTCG ((((((((..(((((((((+)))))))))..)))))))) | 52.9
14 | CGACGTGCCCGATGTGCTG+CAGCACATCTCGCACGTCG ((((((((..(((((((((+)))))))))..)))))))) | 51.6
15 | CGACGTGCCCGATGTGCTG+CAGCACATCTGGCACGTCG (((((((((.(((((((((+))))))))).))))))))) | 59.1
16 | CGACGTGCCCGATGTGCTG+CAGCACATGATGCACGTCG ((((((((...((((((((+))))))))...)))))))) | 48.9
17 | CGACGTGCCCGATGTGCTG+CAGCACATGCCGCACGTCG ((((((((...((((((((+))))))))...)))))))) | 48.1
18 | CGACGTGCCCGATGTGCTG+CAGCACATGGCGCACGTCG ((((((((.(.((((((((+)))))))).).)))))))) | 53.3
19 | CGACGTGCCCGATGTGCTG+CAGCACATGTTGCACGTCG ((((((((...((((((((+))))))))...)))))))) | 48.1
20 | CGACGTGCCCGATGTGCTG+CAGCACATTAAGCACGTCG ((((((((...((((((((+))))))))...)))))))) | 49.5
21 | CGACGTGCCCGATGTGCTG+CAGCACATTATGCACGTCG ((((((((...((((((((+))))))))...)))))))) | 48.4
22 | CGACGTGCCCGATGTGCTG+CAGCACATTGAGCACGTCG ((((((((.(.((((((((+)))))))).).)))))))) | 53.6
23 | CGACGTGCCCGATGTGCTG+CAGCACATTGCGCACGTCG ((((((((.(.((((((((+)))))))).).)))))))) | 51.2
24 | CGACGTGCCCGATGTGCTG+CAGCACATTGGGCACGTCG ((((((((((.((((((((+)))))))).)))))))))) | 62.4

Row | Substance | Tm [°C]
25 | CGACGTGCCCGATGTGCTG+CAGCACATTTCGCACGTCG ((((((((...((((((((+))))))))...)))))))) | 47.6
26 | CGACGTGCCCTATGTGCTG+CAGCACATAAAGCACGTCG ((((((((..(((((((((+)))))))))..)))))))) | 50
27 | CGACGTGCCCTATGTGCTG+CAGCACATACAGCACGTCG ((((((((..(((((((((+)))))))))..)))))))) | 48.8
28 | CGACGTGCCCTATGTGCTG+CAGCACATACCGCACGTCG ((((((((..(((((((((+)))))))))..)))))))) | 47.4
29 | CGACGTGCCCTATGTGCTG+CAGCACATACGGCACGTCG (((((((((.(((((((((+))))))))).))))))))) | 53.5
30 | CGACGTGCCCTATGTGCTG+CAGCACATATAGCACGTCG ((((((((..(((((((((+)))))))))..)))))))) | 49.6
31 | CGACGTGCCCTATGTGCTG+CAGCACATATGGCACGTCG (((((((((.(((((((((+))))))))).))))))))) | 55.8
32 | CGACGTGCCCTATGTGCTG+CAGCACATATTGCACGTCG ((((((((..(((((((((+)))))))))..)))))))) | 48.9
33 | CGACGTGCCCTATGTGCTG+CAGCACATCAGGCACGTCG (((((((((..((((((((+))))))))..))))))))) | 53.8
34 | CGACGTGCCCTATGTGCTG+CAGCACATCCAGCACGTCG ((((((((...((((((((+))))))))...)))))))) | 47.7
35 | CGACGTGCCCTATGTGCTG+CAGCACATCGCGCACGTCG ((((((((.(.((((((((+)))))))).).)))))))) | 48.1
36 | CGACGTGCCCTATGTGCTG+CAGCACATCTAGCACGTCG ((((((((...((((((((+))))))))...)))))))) | 48
37 | CGACGTGCCCTATGTGCTG+CAGCACATCTTGCACGTCG ((((((((...((((((((+))))))))...)))))))) | 47.3
38 | CGACGTGCCCTATGTGCTG+CAGCACATGATGCACGTCG ((((((((...((((((((+))))))))...)))))))) | 48.6
39 | CGACGTGCCCTATGTGCTG+CAGCACATTAAGCACGTCG ((((((((...((((((((+))))))))...)))))))) | 48.7
40 | CGACGTGCCCTATGTGCTG+CAGCACATTCAGCACGTCG ((((((((...((((((((+))))))))...)))))))) | 48.8
41 | CGACGTGCCCTATGTGCTG+CAGCACATTGTGCACGTCG ((((((((.(.((((((((+)))))))).).)))))))) | 47.8
42 | CGACGTGCCCTATGTGCTG+CAGCACATTTGGCACGTCG (((((((((..((((((((+))))))))..))))))))) | 54.1
43 | CGACGTGCCGAATGTGCTG+CAGCACATAAGGCACGTCG (((((((((..((((((((+))))))))..))))))))) | 58
44 | CGACGTGCCGAATGTGCTG+CAGCACATACAGCACGTCG ((((((((.(.((((((((+)))))))).).)))))))) | 50.4
45 | CGACGTGCCGAATGTGCTG+CAGCACATACCGCACGTCG ((((((((.(.((((((((+)))))))).).)))))))) | 49.5
46 | CGACGTGCCGAATGTGCTG+CAGCACATACGGCACGTCG ((((((((((.((((((((+)))))))).)))))))))) | 60.1
47 | CGACGTGCCGAATGTGCTG+CAGCACATAGTGCACGTCG ((((((((...((((((((+))))))))...)))))))) | 45.9
48 | CGACGTGCCGAATGTGCTG+CAGCACATCAGGCACGTCG (((((((((..((((((((+))))))))..))))))))) | 55.4

Row | Substance | Tm [°C]
49 | CGACGTGCCGAATGTGCTG+CAGCACATCGAGCACGTCG ((((((((...((((((((+))))))))...)))))))) | 55.3
50 | CGACGTGCCGAATGTGCTG+CAGCACATCGTGCACGTCG ((((((((...((((((((+))))))))...)))))))) | 51.9
51 | CGACGTGCCGAATGTGCTG+CAGCACATCTAGCACGTCG ((((((((...((((((((+))))))))...)))))))) | 50.1
52 | CGACGTGCCGAATGTGCTG+CAGCACATCTTGCACGTCG ((((((((...((((((((+))))))))...)))))))) | 48.8
53 | CGACGTGCCGAATGTGCTG+CAGCACATGAGGCACGTCG (((((((((..((((((((+))))))))..))))))))) | 63.8
54 | CGACGTGCCGAATGTGCTG+CAGCACATGCCGCACGTCG ((((((((.(.((((((((+)))))))).).)))))))) | 51.5
55 | CGACGTGCCGAATGTGCTG+CAGCACATGCGGCACGTCG ((((((((((.((((((((+)))))))).)))))))))) | 61.6
56 | CGACGTGCCGAATGTGCTG+CAGCACATGGCGCACGTCG ((((((((...((((((((+))))))))...)))))))) | 51.5
57 | CGACGTGCCGAATGTGCTG+CAGCACATGGGGCACGTCG (((((((((..((((((((+))))))))..))))))))) | 56.8
58 | CGACGTGCCGAATGTGCTG+CAGCACATGTCGCACGTCG ((((((((...((((((((+))))))))...)))))))) | 51.4
59 | CGACGTGCCGAATGTGCTG+CAGCACATTAGGCACGTCG (((((((((.(((((((((+))))))))).))))))))) | 59.6
60 | CGACGTGCCGAATGTGCTG+CAGCACATTCGGCACGTCG (((((((((((((((((((+))))))))))))))))))) | 66.5
61 | CGACGTGCCGAATGTGCTG+CAGCACATTGAGCACGTCG ((((((((..(((((((((+)))))))))..)))))))) | 53.3
62 | CGACGTGCCGAATGTGCTG+CAGCACATTGGGCACGTCG (((((((((.(((((((((+))))))))).))))))))) | 59
63 | CGACGTGCCGCATGTGCTG+CAGCACATAACGCACGTCG ((((((((...((((((((+))))))))...)))))))) | 48.3
64 | CGACGTGCCGCATGTGCTG+CAGCACATAGAGCACGTCG ((((((((...((((((((+))))))))...)))))))) | 50.7
65 | CGACGTGCCGCATGTGCTG+CAGCACATAGCGCACGTCG ((((((((...((((((((+))))))))...)))))))) | 53.9
66 | CGACGTGCCGCATGTGCTG+CAGCACATATAGCACGTCG ((((((((...((((((((+))))))))...)))))))) | 48.2
67 | CGACGTGCCGCATGTGCTG+CAGCACATCCCGCACGTCG ((((((((.(.((((((((+)))))))).).)))))))) | 48.8
68 | CGACGTGCCGCATGTGCTG+CAGCACATCGTGCACGTCG ((((((((...((((((((+))))))))...)))))))) | 50.5
69 | CGACGTGCCGCATGTGCTG+CAGCACATCTCGCACGTCG ((((((((...((((((((+))))))))...)))))))) | 47.8
70 | CGACGTGCCGCATGTGCTG+CAGCACATCTGGCACGTCG (((((((((..((((((((+))))))))..))))))))) | 54.2
71 | CGACGTGCCGCATGTGCTG+CAGCACATCTTGCACGTCG ((((((((...((((((((+))))))))...)))))))) | 47.4
72 | CGACGTGCCGCATGTGCTG+CAGCACATGCAGCACGTCG ((((((((.((((((((((+)))))))))).)))))))) | 60
